In assay [1] the target is FN-9*-10 recombinant fibronectin fragment (normal form mimic) (UniProt P02751). Briefly: ELISA, fibronectin fragment tethered on maleimide-activated plate, colorimetric detection (absorbance).
Assay [2] has as its target T1, FN-4G-10 recombinant fibronectin fragment (diseased form mimic) (UniProt P02751 1448-1537; P02751 1538-1631, limits assumed).
T1 construct: domain: 9th type III repeat;domain: 10th type III repeat; also called FnIII9-4G-10; FnIII-4G-10
The assay is described as above. The text has this:
(§1) In vitro ELISA binding assays were employed to determine the efficacy of binding of H5 antibodies and derivatives thereof to the diseased form (dise) and the healthy form (norm) of fibronectin. Maleimide activated ELISA plates were used to tether the recombinant fibronectin fragments, which were named as FN-4G-10 and FN-9*-10, and they mimicked diseased and normal form of FN, respectively. Both formats of H5 were used in different molar concentrations starting with 10^-5M and ending with 10-11M. Bound antibodies were detected by colorimetric method.
(§2) The data represents the combination of two independent experiments, one comparing E. coli (eH5) versus N. benthamiana (nicoH5) produced H5-scFv and the second comparing H5-scFv (scFv) to H5-IgG1 (H5-IgG). […] Further, it discriminated the two fragments showing higher affinity for FN-4G-10 (diseased form) compared to FN-9*-10 (Healthy form).

For assay [3], the target named is FN-9*-10 recombinant fibronectin fragment (normal form mimic) (UniProt P02751). As to the kind of experiment: ELISA, fibronectin fragment tethered to maleimide activated plate, colorimetric detection. A general note: An ELISA detects its analyte on a solid surface through an enzyme-linked reagent.
The target in assay [4] is T1, FN-4G-10 recombinant fibronectin …. Described as above.
Source text: as §1, §2

The target of assay [5] is FN-4G-10 recombinant fibronectin fragment (diseased form mimic) (UniProt P02751). As to the kind of experiment: ELISA, fibronectin fragment tethered on maleimide-activated plate, colorimetric detection (absorbance).
Sequence of FN-4G-10 recombinant fibronectin fragment (diseased form mimic) (UniProt P02751) (P02751 other isoform, or with tags, fused parts or gaps limits assumed): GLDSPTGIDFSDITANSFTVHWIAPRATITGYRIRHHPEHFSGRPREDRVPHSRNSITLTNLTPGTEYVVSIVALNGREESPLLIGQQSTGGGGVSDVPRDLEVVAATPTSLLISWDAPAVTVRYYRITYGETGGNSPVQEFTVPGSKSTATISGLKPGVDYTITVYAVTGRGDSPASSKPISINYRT

Sequence of FN-9*-10 recombinant fibronectin fragment (normal form mimic) (P02751 1448-1631): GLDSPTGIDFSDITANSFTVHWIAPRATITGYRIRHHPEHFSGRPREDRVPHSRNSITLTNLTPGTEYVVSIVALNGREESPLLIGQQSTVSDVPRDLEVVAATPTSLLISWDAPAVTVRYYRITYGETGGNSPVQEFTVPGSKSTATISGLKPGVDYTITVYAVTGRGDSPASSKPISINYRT
T1 sequence (P02751 other isoform, or with tags, fused parts or gaps limits assumed): as the sequence (P02751 other isoform, or with tags, fused parts or gaps limits assumed) above

B1: modified H5-IgG1 antibody (antibody, V domains shown)
VH: EVQLLESGGGLVQPGGSLRLSCAASGFTFSSYAMSWVRQAPGKGLEWVSDIYDGGGTNYADSVKGRFTTSRDNSKNTLYLQMNSLRAEDTAVYYCAKTADNFDYWGQGTLVTVSS
VL: DIQMTQSPSSLSASVGDRVTITCRASQSISSYLNWYQQKPGKAPKLLIYAASTLQSGVPSRFSGSGSGTDFTLTISSLQPEDFATYYCQQANSAPTTFGQGTKVEIKR
notes: Full length IgG1 format; Made in a plug-and-(dis)play (PnP) hybridoma cell line; also called modified IgG1 format of H5
As usually defined, the EC50 (read off the curve) is the midpoint of the concentration-response curve. Take B1: the results for the EC50 (read off the curve) in assay [1] and in assay [2] were 10 nM and ~4 nM, respectively. In addition, the fold higher binding than the H5-scFv format at equimolar concentration is > 50 fold in assay [3] and ≥ 50 fold in assay [4].

B2: unmodified H5 antibody (H5-scFv) produced in E. coli (scFv, part only; not given: scFv linker, domain order, tags, V domains shown, not shown: another chain or arm of the molecule; small tags and cut ends)
VH: EVQLLESGGGLVQPGGSLRLSCAASGFTFSSYAMSWVRQAPGKGLEWVSDIYDGGGTNYADSVKGRFTTSRDNSKNTLYLQMNSLRAEDTAVYYCAKTADNFDYWGQGTLVTVSS
VL: DIQMTQSPSSLSASVGDRVTITCRASQSISSYLNWYQQKPGKAPKLLIYAASTLQSGVPSRFSGSGSGTDFTLTISSLQPEDFATYYCQQANSAPTTFGQGTKVEIK
On to B2, for which the EC50 (read off the curve) in assay [5] and in assay [1] was 100 nM in each case.

The values are drawn from patent US20240210419A1 (UNIVERSITY OF VIRGINIA PATENT FOUNDATION, published 2024).
